# Laboratory results published in IntAct's records for PubMed 17828277.
# B1: CAP-Gly domain-containing linker protein 1 (Homo sapiens), P30622-1 (parent)
# chain: MSMLKPSGLKAPTKILKPGSTALKTPTAVVAPVEKTISSEKASSTPSSETQEEFVDDFRVGERVWVNGNKPGFIQFLGETQFAPGQWAGIVLDEPIGKNDGSVAGVRYFQCEPLKGIFTRPSKLTRKVQAEDEANGLQTTPASRATSPLCTSTASMVSSSPSTPSNIPQKPSQPAAKEPSATPPISNLTKTASESISNLSEAGSIKKGERELKIGDRVLVGGTKAGVVRFLGETDFAKGEWCGVELDEPLGKNDGAVAGTRYFQCQPKYGLFAPVHKVTKIGFPSTTPAKAKANAVRRVMATTSASLKRSPSASSLSSMSSVASSVSSRPSRTGLLTETSSRYARKISGTTALQEALKEKQQHIEQLLAERDLERAEVAKATSHVGEIEQELALARDGHDQHVLELEAKMDQLRTMVEAADREKVELLNQLEEEKRKVEDLQFRVEEESITKGDLETQTKLEHARIKELEQSLLFEKTKADKLQRELEDTRVATVSEKSRIMELEKDLALRVQEVAELRRRLESNKPAGDVDMSLSLLQEISSLQEKLEVTRTDHQREITSLKEHFGAREETHQKEIKALYTATEKLSKENESLKSKLEHANKENSDVIALWKSKLETAIASHQQAMEELKVSFSKGLGTETAEFAELKTQIEKMRLDYQHEIENLQNQQDSERAAHAKEMEALRAKLMKVIKEKENSLEAIRSKLDKAEDQHLVEMEDTLNKLQEAEIKVKELEVLQAKCNEQTKVIDNFTSQLKATEEKLLDLDALRKASSEGKSEMKKLRQQLEAAEKQIKHLEIEKNAESSKASSITRELQGRELKLTNLQENLSEVSQVKETLEKELQILKEKFAEASEEAVSVQRSMQETVNKLHQKEEQFNMLSSDLEKLRENLADMEAKFREKDEREEQLIKAKEKLENDIAEIMKMSGDNSSQLTKMNDELRLKERDVEELQLKLTKANENASFLQKSIEDMTVKAEQSQQEAAKKHEEEKKELERKLSDLEKKMETSHNQCQELKARYERATSETKTKHEEILQNLQKTLLDTEDKLKGAREENSGLLQELEELRKQADKAKAAQTAEDAMQIMEQMTKEKTETLASLEDTKQTNAKLQNELDTLKENNLKNVEELNKSKELLTVENQKMEEFRKEIETLKQAAAQKSQQLSALQEENVKLAEELGRSRDEVTSHQKLEEERSVLNNQLLEMKKRESKFIKDADEEKASLQKSISITSALLTEKDAELEKLRNEVTVLRGENASAKSLHSVVQTLESDKVKLELKVKNLELQLKENKRQLSSSSGNTDTQADEDERAQESQIDFLNSVIVDLQRKNQDLKMKVEMMSEAALNGNGDDLNNYDSDDQEKQSKKKPRLFCDICDCFDLHDTEDCPTQAQMSEDPPHSTHHGSRGEERPYCEICEMFGHWATNCNDDETF
# B2: Microtubule-associated protein RP/EB family member 1 (Homo sapiens), Q15691 (parent)
# chain: MAVNVYSTSVTSDNLSRHDMLAWINESLQLNLTKIEQLCSGAAYCQFMDMLFPGSIALKKVKFQAKLEHEYIQNFKILQAGFKRMGVDKIIPVDKLVKGKFQDNFEFVQWFKKFFDANYDGKDYDPVAARQGQETAVAPSLVAPALNKPKKPLTSSSAAPQRPISTQRTAAAPKAGPGVVRKNPGVGNGDDEAAELMQQVNVLKLTVEDLEKERDFYFGKLRNIELICQENEGENDPVLQRIVDILYATDEGFVIPDEGGPQEEQEEY
# Variants of: B1
# Details: with dctn1_human DCTN1, Q14203
row,effect of a mutation on the interaction,Variant
1,decreasing interaction strength,I1410D
2,decreasing interaction strength,I1410H

# Variants of: B2
# Details: with dctn1_human DCTN1, Q14203
# Target sequence in this assay (Q14203 whole entry): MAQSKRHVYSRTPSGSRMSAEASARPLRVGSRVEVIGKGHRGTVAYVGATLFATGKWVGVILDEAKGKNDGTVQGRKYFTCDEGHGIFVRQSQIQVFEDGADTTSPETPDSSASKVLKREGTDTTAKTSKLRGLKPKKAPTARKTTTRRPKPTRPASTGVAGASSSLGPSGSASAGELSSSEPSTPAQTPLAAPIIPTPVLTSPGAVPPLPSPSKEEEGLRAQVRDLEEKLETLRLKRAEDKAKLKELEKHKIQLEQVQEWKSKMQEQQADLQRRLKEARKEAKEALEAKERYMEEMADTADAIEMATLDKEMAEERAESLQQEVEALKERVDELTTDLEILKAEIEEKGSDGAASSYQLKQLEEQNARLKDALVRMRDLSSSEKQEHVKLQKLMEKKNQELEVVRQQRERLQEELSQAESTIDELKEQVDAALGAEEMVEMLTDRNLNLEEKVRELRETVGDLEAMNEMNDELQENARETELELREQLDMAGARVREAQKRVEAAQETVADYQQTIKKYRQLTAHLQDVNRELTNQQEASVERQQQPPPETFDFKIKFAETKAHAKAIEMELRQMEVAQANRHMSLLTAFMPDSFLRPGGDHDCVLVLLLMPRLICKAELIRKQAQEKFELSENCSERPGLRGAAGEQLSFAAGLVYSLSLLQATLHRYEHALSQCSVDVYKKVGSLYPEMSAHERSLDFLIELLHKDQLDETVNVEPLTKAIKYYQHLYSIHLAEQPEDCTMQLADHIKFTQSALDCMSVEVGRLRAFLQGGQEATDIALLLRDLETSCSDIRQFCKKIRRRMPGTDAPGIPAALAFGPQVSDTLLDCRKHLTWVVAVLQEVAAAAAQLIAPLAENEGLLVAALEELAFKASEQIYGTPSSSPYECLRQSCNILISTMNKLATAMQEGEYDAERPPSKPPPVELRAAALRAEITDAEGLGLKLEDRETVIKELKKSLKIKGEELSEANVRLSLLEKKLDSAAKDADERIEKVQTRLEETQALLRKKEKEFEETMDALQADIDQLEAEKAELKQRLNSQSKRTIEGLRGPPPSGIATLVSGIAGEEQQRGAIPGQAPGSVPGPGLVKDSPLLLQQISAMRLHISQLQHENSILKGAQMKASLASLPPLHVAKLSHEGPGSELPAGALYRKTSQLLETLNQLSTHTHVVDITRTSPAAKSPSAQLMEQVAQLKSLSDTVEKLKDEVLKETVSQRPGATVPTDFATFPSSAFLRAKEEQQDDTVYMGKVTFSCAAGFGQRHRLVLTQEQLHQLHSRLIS
row,effect of a mutation on the interaction,Variant
1,decreasing interaction strength,MAVNVYSTSVTSDNLSRHDMLAWINESLQLNLTKIEQLCSGAAYCQFMDMLFPGSIALKKVKFQAKLEHEYIQNFKILQAGFKRMGVDKIIPVDKLVKGKFQDNFEFVQWFKKFFDANYDGKDYDPVAARQGQETAVAPSLVAPALNKPKKPLTSSSAAPQRPISTQRTAAAPKAGPGVVRKNPGVGNGDDEAAELMQQVNVLKLTVEDLEKERDFYFGKLRNIELICQENEGENDPVLQRIVDILYATDEGFVIPDEGGPQEEQEEI [Y268I]
2,decreasing interaction strength,MAVNVYSTSVTSDNLSRHDMLAWINESLQLNLTKIEQLCSGAAYCQFMDMLFPGSIALKKVKFQAKLEHEYIQNFKILQAGFKRMGVDKIIPVDKLVKGKFQDNFEFVQWFKKFFDANYDGKDYDPVAARQGQETAVAPSLVAPALNKPKKPLTSSSAAPQRPISTQRTAAAPKAGPGVVRKNPGVGNGDDEAAELMQQVNVLKLTVEDLEKERDFYFGKLRNIELICQENEGENDPVLQRIVDILYATDEGFVIPDEGGPQEEQEEG [Y268G]
